In patent US20190085055A1:
Several values for one entry are separate records, joined by “and”; a condition that tells them apart may be missing. Equal values may be shown once. Blank lines part the entries; values can stand above or below the substance they belong to.

Key:
[1] = target: D3H44 light chain F116A; test: LCCA (SPR), competitor L1 WT
[2] = target: D3H44 light chain F118W_V133S; test: LCCA (SPR), competitor L1 F116S
[3] = target: D3H44 light chain F116A_L135A; test: LCCA (SPR), competitor L1 L135W
[4] = target: D3H44 light chain F116A_L135V; test: LCCA (SPR), competitor L1 L135W
[5] = target: D3H44 light chain, wild type; test: LCCA (SPR), competitor L2 F116A
[6] = target: D3H44 light chain F116A_L135A; test: LCCA (SPR), competitor L1 L135W_N137A
[7] = target: D3H44 light chain L135W_N137A; test: LCCA (SPR), competitor L2 F116A_L135A
[8] = target: D3H44 light chain L135W; test: LCCA (SPR), competitor L2 F116A_L135A
[9] = target: D3H44 light chain L135W; test: LCCA (SPR), competitor L2 F116A_L135V
[10] = target: D3H44 light chain F116S; test: LCCA (SPR), competitor L2 F118W_V133S
[11] = target: D3H44 light chain Q124R_Q160K_T178R; test: LCCA: H1 co-expressed with L1 and L2, SPR read-out of light chain tags; competing chain L1
[12] = target: D3H44 light chain Q124E_Q160E_T178D; test: LCCA: H1 co-expressed with L1 and L2, SPR read-out of light chain tags; competing chain L2
[13] = target: D3H44 light chain S176L; test: LCCA (SPR), competitor L2 WT
[14] = target: D3H44 light chain, wild type; test: LCCA (SPR), competitor L1 S176L
[15] = target: D3H44 light chain S176L; test: LCCA (SPR), competitor L1 V133S
[16] = target: D3H44 light chain V133S; test: LCCA (SPR), competitor L2 S176L
[17] = target: D3H44 light chain S176L; test: LCCA: H2 co-expressed with L1 and L2, SPR read-out of light chain tags; competing chain L1
[18] = target: D3H44 light chain V133S; test: LCCA: H2 co-expressed with L1 and L2, SPR read-out of light chain tags; competing chain L2
[19] = target: D3H44 light chain Q124R_Q160K_T178R; test: LCCA: H2 co-expressed with L1 and L2, SPR read-out of light chain tags; competing chain L1
[20] = target: D3H44 light chain Q124E_Q160E_T178D; test: LCCA: H2 co-expressed with L1 and L2, SPR read-out of light chain tags; competing chain L2
[21] = target: D3H44 light chain Q124E_V133W_Q160E_T180E; test: LCCA (SPR), competitor L2 V133A_Q160K_T178R
[22] = target: D3H44 light chain V133A_Q160K_T178R; test: LCCA (SPR), competitor L1 Q124E_V133W_Q160E_T180E
[23] = target: D3H44 light chain V133A_Q160K_T178R; test: LCCA: H2 co-expressed with L1 and L2, SPR read-out of light chain tags; competing chain L1
[24] = target: D3H44 light chain Q124E_V133W_Q160E_T180E; test: LCCA: H2 co-expressed with L1 and L2, SPR read-out of light chain tags; competing chain L2
[25] = target: D3H44 light chain V133A_Q160K_T178R; test: LCCA: H1 co-expressed with L1 and L2, SPR read-out of light chain tags; competing chain L1
[26] = target: D3H44 light chain Q124E_V133W_Q160E_T180E; test: LCCA: H1 co-expressed with L1 and L2, SPR read-out of light chain tags; competing chain L2
[27] = target: D3H44 light chain Q38E; test: LCCA (SPR), competitor L1 Q38M
[28] = target: D3H44 light chain Q38M; test: LCCA (SPR), competitor L2 Q38E
[29] = target: D3H44 light chain Q38E; test: LCCA (SPR), competitor L1 Q38M; first of two ratios in the cell
[30] = target: D3H44 light chain Q38M; test: LCCA (SPR), competitor L2 Q38E; first of two ratios in the cell
[31] = target: D3H44 light chain Q38E; test: LCCA (SPR), competitor L1 Q38M; second of two ratios in the cell
[32] = target: D3H44 light chain Q38M; test: LCCA (SPR), competitor L2 Q38E; second of two ratios in the cell

Substance: D3H44 heavy chain (Fab format) D146G_S186R
H1 Readout (H1-L2) [11]: 1 | H1 Readout (H1-L1) [12]: 84

Substance: D3H44 heavy chain (Fab format) K145T_Q179D_S188F
H2 L1 of H2 L2:H2 L1 (screen) [21]: 1.5 | H2 L1 of H2 L2:H2 L1 (verification) [21]: 11.5 | H2 L2 of H2 L2:H2 L1 (screen) [22]: 87.3 | H2 L2 of H2 L2:H2 L1 (verification) [22]: 83.2 | H2 Readout (H2-L2) [23]: 87 | H2 Readout (H2-L1) [24]: 14

Substance: D3H44 heavy chain (Fab format) L143A_D144G_Q179R
H1 L1 of H1 L1:H1 L2 (screen) [21]: 97.4 | H1 L1 of H1 L1:H1 L2 (verification) [21]: 93.6 | H1 L2 of H1 L1:H1 L2 (screen) [22]: 0.4 | H1 L2 of H1 L1:H1 L2 (verification) [22]: 0.6 | H1 Readout (H1-L2) [25]: 1 | H1 Readout (H1-L1) [26]: 104

Substance: D3H44 heavy chain (Fab format) Q39M
H1 L2 of H1 L1:H1 L2 (screen) [27]: 33.3 | H1 L1 of H1 L1:H1 L2 (screen) [28]: 69.6 | H1 L2 of H1 L1:H1 L2 (verification) [29]: 31.3 | H1 L1 of H1 L1:H1 L2 (verification) [30]: 60.2 | H1 L2 of H1 L1:H1 L2 (verification) [31]: 40.6 | H1 L1 of H1 L1:H1 L2 (verification) [32]: 58.8

Continued, values first:

H1 L2 of H1 L1:H1 L2 (screen) [1]: 30.5 | H2 L2 of H2 L2:H2 L1 (screen) [2]: 76.5 | H2 L2 of H2 L2:H2 L1 (verification) [2]: 38.1 and 40.9 | H2 L2 of H2 L2:H2 L1 (screen) [3]: 77.4 | H2 L2 of H2 L2:H2 L1 (verification) [3]: 78.7 | H2 L2 of H2 L2:H2 L1 (screen) [4]: 62.7 | H2 L2 of H2 L2:H2 L1 (verification) [4]: 76.7 | H1 L1 of H1 L1:H1 L2 (screen) [5]: 58.7 | H2 L2 of H2 L2:H2 L1 (screen) [6]: 73.6 | H2 L1 of H2 L2:H2 L1 (screen) [7]: 19.8 | H2 L1 of H2 L2:H2 L1 (screen) [8]: 17.4 | H2 L1 of H2 L2:H2 L1 (verification) [8]: 10.2 | H2 L1 of H2 L2:H2 L1 (screen) [9]: 34.6 | H2 L1 of H2 L2:H2 L1 (verification) [9]: 19.1 | H2 L1 of H2 L2:H2 L1 (screen) [10]: 4.6 | H2 L1 of H2 L2:H2 L1 (verification) [10]: 40.9 and 38.1
Substance: D3H44 heavy chain (Fab format) A139W

H1 L1 of H1 L1:H1 L2 (screen) [13]: 53.4 | H1 L2 of H1 L1:H1 L2 (screen) [14]: 9.68 | H2 L2 of H2 L2:H2 L1 (screen) [15]: 81.1 | H2 L2 of H2 L2:H2 L1 (verification) [15]: 68.1 | H2 L1 of H2 L2:H2 L1 (screen) [16]: 1.44 | H2 L1 of H2 L2:H2 L1 (verification) [16]: 2.9 | H2 Readout (H2-L2) [17]: 98 | H2 Readout (H2-L1) [18]: 1
Substance: D3H44 heavy chain (Fab format) F174V_P175S_S188G

H2 Readout (H2-L2) [19]: 74 | H2 Readout (H2-L1) [20]: 2
Substance: D3H44 heavy chain (Fab format) K145E_D146G_Q179D_S188L
